# Target: T1, HLA-A*01:01 (human)
# T1 construct: MHC class I monomer first loaded with a UV-sensitive peptide (not identified) that is cleaved by UV irradiation and exchanged for the tested peptide; captured on streptavidin plates, detected with anti-β2m; also called peptide-receptive MHC molecules
# Experiment: UV-ligand exchange, anti-b2m ELISA
# How it was run: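 Peptide–MHC complexes made by UV-ligand exchange of a UV-cleavable peptide; exchange yield measured by ELISA on streptavidin-coated plates, samples diluted 100-fold, 1 h 37 °C. Detection with 2 ug/ml HRP anti-β2m, TMB, A450; refolded HLA-A*02:01/MLA-001 monomer standards 15-500 ng/ml.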
row,peptide exchange yield,Binder
1,20 to 50%,TTDDTTAMASAS
2,50 to 75%,HLKILSPIY
3,20 to 50%,KPSAVKDSIY
4,20 to 50%,AADSNPSEL
5,20 to 50%,FPAPPAHWFY
6,20 to 50%,NFSDLVFTY

# Continued, binder first:
row,Binder,peptide exchange yield
1,YEDHFPLLF,20 to 50%
2,TTSSAISWILY,50 to 75%
3,QLDSTLDSY,50 to 75%
4,SITDVDFIY,20 to 50%
5,SSDPKAVMF,20 to 50%
6,STIRGELFF,20 to 50%

# Source: US20200087364A1 (IMMATICS BIOTECHNOLOGIES, published 2020)
